In article PMC4175418 (Methods in molecular biology (Clifton, N.J.), 2014):

Target: HIV-1 Rev (HIV-1, UniProt P04618)
Sequence (P04618 whole entry): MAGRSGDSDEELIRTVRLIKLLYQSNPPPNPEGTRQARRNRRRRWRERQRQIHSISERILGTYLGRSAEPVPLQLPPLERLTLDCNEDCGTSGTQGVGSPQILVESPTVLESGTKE

B1: anti-Rev Fab (chimeric rabbit/human) (Fab, V domains shown)
VH: QEQLVESGGRLVTPGTALTLTCKVSGFSLSGFWLNWVRQAPGKGLEWVGAIYRGSGSEWYASWAKGRFTISDTSTTVTLKLTSPTTEDTATYFCAADTTDNGYFTIWGPGTLVTVSS
VL: ELVMTQTPSSVSEPVGGTVTIKCQASQSISSWLSWYQQKPGQPPKLLIYDASNLASGVPSRFMGSGSGTEYTLTISGVQREDAATYYCLGGYPAASYRTAFGGGTELEII
For B1, the Kd was under 0.1 nM and the “stoichiometry N” value was 1.
